From paper PMC8528721, “Hop2 interacts with the transcription factor CEBPα and suppresses adipocyte differentiation” (The Journal of Biological Chemistry, 2021)

T1: CEBPδ in nuclear extracts of COS1 cells (UniProt Q00322 1-268)
T1 sequence (looked up): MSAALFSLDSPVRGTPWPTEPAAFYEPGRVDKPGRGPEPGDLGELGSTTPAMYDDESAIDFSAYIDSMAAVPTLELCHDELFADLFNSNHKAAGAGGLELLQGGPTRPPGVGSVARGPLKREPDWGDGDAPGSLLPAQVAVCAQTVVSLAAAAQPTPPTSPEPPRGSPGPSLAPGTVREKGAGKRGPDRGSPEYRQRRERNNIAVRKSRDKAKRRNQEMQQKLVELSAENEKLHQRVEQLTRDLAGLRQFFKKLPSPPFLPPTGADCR

T2: endogenous CEBPβ (CCAAT enhancer binding protein beta) (mouse (endogenous in mouse visceral …, UniProt P28033-1 1-296))
T2 sequence (looked up): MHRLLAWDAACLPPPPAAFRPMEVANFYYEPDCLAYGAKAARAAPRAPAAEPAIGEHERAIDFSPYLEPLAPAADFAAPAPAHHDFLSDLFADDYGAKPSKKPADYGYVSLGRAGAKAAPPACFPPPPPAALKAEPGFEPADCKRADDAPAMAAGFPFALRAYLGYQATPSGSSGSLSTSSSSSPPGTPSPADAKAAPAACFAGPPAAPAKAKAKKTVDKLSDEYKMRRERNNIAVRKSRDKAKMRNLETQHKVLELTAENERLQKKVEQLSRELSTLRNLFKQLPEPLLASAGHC


Tests used:
Flag-tagged CEBPα = Flag-tagged CEBPα (UniProt P53566 1-359); assay: cell-based or functional assay
[1] = molecular target: T1, CEBPδ in nuclear extracts of COS1 cells; assay: cell-based or functional assay
[2] = molecular target: T2, endogenous CEBPβ (CCAAT enhancer …); assay: cell-based or functional assay
His-CEBPα = His-CEBPα (UniProt P53566 1-359); assay: EMSA; no Hop2; EMSA: 5 pmol probe, room temperature, 10 min; buffer, salt and pH not given (refs 36, 55); details: protein: recombinant; tags: His; chain copies: 2; label: 32P; self-annealed, two copies of the strand; 20 bp duplex with 5' overhang 4 nt (GATC) at both ends
Chain of His-CEBPα (P53566 whole entry): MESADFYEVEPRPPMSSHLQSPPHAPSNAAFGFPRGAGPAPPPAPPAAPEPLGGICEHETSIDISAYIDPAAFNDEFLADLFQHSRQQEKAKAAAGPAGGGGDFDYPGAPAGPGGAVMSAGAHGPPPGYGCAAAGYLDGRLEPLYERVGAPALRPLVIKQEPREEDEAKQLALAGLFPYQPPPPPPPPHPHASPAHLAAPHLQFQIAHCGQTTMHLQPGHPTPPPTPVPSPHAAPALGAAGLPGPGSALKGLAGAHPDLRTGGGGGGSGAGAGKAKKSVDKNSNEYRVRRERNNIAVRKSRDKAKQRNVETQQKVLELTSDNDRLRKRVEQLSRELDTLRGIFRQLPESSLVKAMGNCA

Chain of Flag-tagged CEBPα (P53566 whole entry): as above

C3-Luc reporter activity in COS1 cells cotransfected with CEBPα and Hop2 (6.1-fold brought down to 1.6-fold) (Flag-tagged CEBPα) [% suppression] | Leptin-Luc reporter activity in COS1 cells cotransfected with CEBPα and Hop2 (35.7- to 12.2-fold) (Flag-tagged CEBPα) [% inhibition] | C3-Luc reporter activity in COS1 cells cotransfected with CEBPδ and Hop2 (5.7-fold brought down to 2.2-fold) [1] [% suppression] | Leptin-Luc reporter activity in COS1 cells cotransfected with CEBPδ and Hop2 (31.9- to 1.4-fold) [1] [% inhibition] | C3-Luc reporter activity in COS1 cells cotransfected with CEBPβ and Hop2 (4.5-fold brought down to 3.1-fold) [2] [% suppression] | Leptin-Luc reporter activity in COS1 cells cotransfected with CEBPβ and Hop2 (21.0- to 1.7-fold) [2] [% inhibition] | Binder | binding result (His-CEBPα)
74 | 66 | 61 | 97 | 31 | 92 | hemagglutinin (HA)-tagged Hop2 (natural protein, UniProt O35047 1-217, looked up) MSKSRAEAAAGAPGIILRYLQEQNRPYSAQDVFGNLQKEHGLGKAAVVKALDQLAQEGKIKEKTYGKQKIYFADQNQFDTVSDADLHGLDASIVALTAKVQSLQQSCRHMEAELKELTSALTTPEMQKEIQELKKECAQYTERLKNIKAATNHVTPEEKEKVYRDRQKYCKEWRKRKRMTTELCDAILEGYPKSKKQFFEEVGIETDEDHNVLLPDP | –
– | – | – | – | – | – | CEBP consensus palindrome probe (dsDNA) DNA 1: GATCTGCAGATTGCGCAATCTGCA DNA 2: GATCTGCAGATTGCGCAATCTGCA | binds
